Target: recombinant spike glycoprotein RBD from SARS-CoV-2 (BEI Resources NR-52366) (SARS-CoV-2) (UniProt P0DTC2)
Assay: BLI

recombinant human GAPDH (glyceraldehyde-3-phosphate dehydrogenase), P04406 1-335 (enzyme; other documents disagree on this pair), sequence (P04406 whole entry): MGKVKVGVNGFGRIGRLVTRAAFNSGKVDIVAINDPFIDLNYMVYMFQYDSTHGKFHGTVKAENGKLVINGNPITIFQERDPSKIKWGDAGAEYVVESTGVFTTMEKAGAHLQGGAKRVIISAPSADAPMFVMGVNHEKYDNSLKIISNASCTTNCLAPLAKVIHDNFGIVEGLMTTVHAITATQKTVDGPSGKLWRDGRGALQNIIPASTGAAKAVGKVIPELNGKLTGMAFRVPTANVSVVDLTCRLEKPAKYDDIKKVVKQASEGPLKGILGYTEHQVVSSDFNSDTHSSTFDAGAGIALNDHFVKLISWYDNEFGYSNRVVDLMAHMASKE

## recombinant human GAPDH (glyceraldehyde-3-phosphate dehydrogenase), P04406 1-335 (enzyme; other documents disagree on this pair)
  Kd: 11.8 nM

— PMC10911789
